Laboratory results taken from paper PMC7041945, “Misfolded proteins bind and activate death receptor 5 to trigger apoptosis during unresolved endoplasmic reticulum stress” (eLife, 2020).

Tested on: CHOP, BiP, and DR5 mRNA in HCT116 cells
Experiment: qPCR of UPR target transcripts (CHOP, BiP, DR5)
Format: cell-based, Homo sapiens
Details: for avg. fold induction relative to empty traffo, BiP / avg. fold induction relative to empty traffo, CHOP / avg. fold induction relative to empty traffo, DR5 total: norm to GAPDH; for 2^-(deltaCq) BiP / 2^-(deltaCq) CHOP / 2^-(deltaCq) DR5 total: vs GAPDH
Protocol: Cells were grown in 6-well plates and harvested with 0.5 ml of TRIzol reagent (Life Technologies) per manufacturer’s protocol to extract RNA. For cDNA synthesis, 500 ng of total RNA was reverse transcribed with 2 μl of the SuperScript VILO master mix (Life Technologies # 11755050) in a total reaction volume of 10 μl following the manufacturer’s protocol for reaction temperature and duration. The reverse transcription product was diluted to 200 μl with 10 mM Tris-HCl pH 8.2 and used at 1:100 dilution for subsequent RT-PCR reactions.
PCR samples were prepared as described by manufacturer’s protocols from iQ SYBR Green Supermix (BioRad #17088800).
For each experiment, qRT-PCR reactions were set up in triplicate and run using a CFX96 Real Time System (Bio-Rad). Quantitation cycles were determined with CFX Manager 3.0 software (Bio-Rad) and then normalized to GAPDH as an internal control.

[1] = HCT116, pRK CHOP 31 ng, Sheet1, replicate 1

B1: pRK CHOP (protein, UniProt P35638 1-169, looked up)
DNA damage-inducible …: MAAESLPFSFGTLSSWELEAWYEDLQEVLSSDENGGTYVSPPGNEEEESKIFTTLDPASLAWLTEEEPEPAEVTSTSQSPHSPDSSQSSLAQEEEEEDQGRTRKRKQSGHSPARAGKQRMKEKEQENERKVAQLAEENERLKQEIERLTREVEATRRALIDRMVNLHQA
modifications: expression plasmid
Question: Which results are given for B1?
Answer: avg. fold induction relative to empty traffo, BiP (HCT116, 31 ng): 0.2997 fold; avg. fold induction relative to empty traffo, CHOP (HCT116, 31 ng): 18.7911 fold; fold induction relative to empty traffo, BiP (HCT116, 31 ng, replicate 1): 0.28 fold; fold induction relative to empty traffo, CHOP (HCT116, 31 ng, replicate 1): 16.3851 fold; fold induction relative to empty traffo, DR5 total (HCT116, 31 ng, replicate 1): 0.9029 fold; fold induction relative to empty traffo, BiP (HCT116, 31 ng, replicate 2): 0.3243 fold; fold induction relative to empty traffo, CHOP (HCT116, 31 ng, replicate 2): 19.1521 fold; fold induction relative to empty traffo, DR5 total (HCT116, 31 ng, replicate 2): 0.9212 fold; fold induction relative to empty traffo, BiP (HCT116, 31 ng, replicate 3): 0.2949 fold; fold induction relative to empty traffo, CHOP (HCT116, 31 ng, replicate 3): 20.8362 fold; fold induction relative to empty traffo, DR5 total (HCT116, 31 ng, replicate 3): 2.023 fold; 2^-(deltaCq) BiP (HCT116, 31 ng, replicate 1): 0.02437; 2^-(deltaCq) CHOP (HCT116, 31 ng, replicate 1): 0.1729; 2^-(deltaCq) DR5 total (HCT116, 31 ng, replicate 1): 0.01464; 2^-(deltaCq) BiP (HCT116, 31 ng, replicate 2): 0.02822; 2^-(deltaCq) CHOP (HCT116, 31 ng, replicate 2): 0.2021; 2^-(deltaCq) DR5 total (HCT116, 31 ng, replicate 2): 0.01494; 2^-(deltaCq) BiP (HCT116, 31 ng, replicate 3): 0.02567; 2^-(deltaCq) CHOP (HCT116, 31 ng, replicate 3): 0.2199; 2^-(deltaCq) DR5 total (HCT116, 31 ng, replicate 3): 0.0328; avg. fold induction relative to empty traffo, BiP (HCT116, 62 ng): 0.334 fold; avg. fold induction relative to empty traffo, CHOP (HCT116, 62 ng): 50.7204 fold; avg. fold induction relative to empty traffo, DR5 total (HCT116, 62 ng): 0.954 fold; fold induction relative to empty traffo, BiP (HCT116, 62 ng, replicate 1): 0.3561 fold; fold induction relative to empty traffo, CHOP (HCT116, 62 ng, replicate 1): 46.9347 fold; fold induction relative to empty traffo, DR5 total (HCT116, 62 ng, replicate 1): 0.9555 fold; fold induction relative to empty traffo, BiP (HCT116, 62 ng, replicate 2): 0.3335 fold; fold induction relative to empty traffo, CHOP (HCT116, 62 ng, replicate 2): 49.2833 fold; fold induction relative to empty traffo, DR5 total (HCT116, 62 ng, replicate 2): 1.032 fold; fold induction relative to empty traffo, BiP (HCT116, 62 ng, replicate 3): 0.3124 fold; fold induction relative to empty traffo, CHOP (HCT116, 62 ng, replicate 3): 55.9433 fold; fold induction relative to empty traffo, DR5 total (HCT116, 62 ng, replicate 3): 0.8745 fold; 2^-(deltaCq) BiP (HCT116, 62 ng, replicate 1): 0.031; 2^-(deltaCq) CHOP (HCT116, 62 ng, replicate 1): 0.4954; 2^-(deltaCq) DR5 total (HCT116, 62 ng, replicate 1): 0.01549; 2^-(deltaCq) BiP (HCT116, 62 ng, replicate 2): 0.02903; 2^-(deltaCq) CHOP (HCT116, 62 ng, replicate 2): 0.5202; 2^-(deltaCq) DR5 total (HCT116, 62 ng, replicate 2): 0.01673; 2^-(deltaCq) BiP (HCT116, 62 ng, replicate 3): 0.02719; 2^-(deltaCq) CHOP (HCT116, 62 ng, replicate 3): 0.5905; 2^-(deltaCq) DR5 total (HCT116, 62 ng, replicate 3): 0.01418; avg. fold induction relative to empty traffo, BiP (HCT116, 125 ng): 0.5304 fold; avg. fold induction relative to empty traffo, CHOP (HCT116, 125 ng): 220.701 fold; avg. fold induction relative to empty traffo, DR5 total (HCT116, 125 ng): 1.17 fold; fold induction relative to empty traffo, BiP (HCT116, 125 ng, replicate 1): 0.6342 fold; fold induction relative to empty traffo, CHOP (HCT116, 125 ng, replicate 1): 230.561 fold; fold induction relative to empty traffo, DR5 total (HCT116, 125 ng, replicate 1): 1.242 fold; fold induction relative to empty traffo, BiP (HCT116, 125 ng, replicate 2): 0.5274 fold; fold induction relative to empty traffo, CHOP (HCT116, 125 ng, replicate 2): 173.762 fold; fold induction relative to empty traffo, DR5 total (HCT116, 125 ng, replicate 2): 1.206 fold; fold induction relative to empty traffo, BiP (HCT116, 125 ng, replicate 3): 0.4295 fold; fold induction relative to empty traffo, CHOP (HCT116, 125 ng, replicate 3): 257.78 fold; fold induction relative to empty traffo, DR5 total (HCT116, 125 ng, replicate 3): 1.064 fold; 2^-(deltaCq) BiP (HCT116, 125 ng, replicate 1): 0.0552; 2^-(deltaCq) CHOP (HCT116, 125 ng, replicate 1): 2.434; 2^-(deltaCq) DR5 total (HCT116, 125 ng, replicate 1): 0.02013; 2^-(deltaCq) BiP (HCT116, 125 ng, replicate 2): 0.04591; 2^-(deltaCq) CHOP (HCT116, 125 ng, replicate 2): 1.834; 2^-(deltaCq) DR5 total (HCT116, 125 ng, replicate 2): 0.01955; 2^-(deltaCq) BiP (HCT116, 125 ng, replicate 3): 0.03739; 2^-(deltaCq) CHOP (HCT116, 125 ng, replicate 3): 2.7208; 2^-(deltaCq) DR5 total (HCT116, 125 ng, replicate 3): 0.01725; avg. fold induction relative to empty traffo, BiP (HCT116, 250 ng): 0.5014 fold; avg. fold induction relative to empty traffo, CHOP (HCT116, 250 ng): 408.627 fold; avg. fold induction relative to empty traffo, DR5 total (HCT116, 250 ng): 0.9069 fold; fold induction relative to empty traffo, BiP (HCT116, 250 ng, replicate 1): 0.6408 fold; fold induction relative to empty traffo, CHOP (HCT116, 250 ng, replicate 1): 391.947 fold; fold induction relative to empty traffo, DR5 total (HCT116, 250 ng, replicate 1): 0.8794 fold; fold induction relative to empty traffo, BiP (HCT116, 250 ng, replicate 2): 0.4446 fold; fold induction relative to empty traffo, CHOP (HCT116, 250 ng, replicate 2): 418.188 fold; fold induction relative to empty traffo, DR5 total (HCT116, 250 ng, replicate 2): 0.9861 fold; fold induction relative to empty traffo, BiP (HCT116, 250 ng, replicate 3): 0.4188 fold; fold induction relative to empty traffo, CHOP (HCT116, 250 ng, replicate 3): 415.746 fold; fold induction relative to empty traffo, DR5 total (HCT116, 250 ng, replicate 3): 0.8551 fold; 2^-(deltaCq) BiP (HCT116, 250 ng, replicate 1): 0.05578; 2^-(deltaCq) CHOP (HCT116, 250 ng, replicate 1): 4.1369; 2^-(deltaCq) DR5 total (HCT116, 250 ng, replicate 1): 0.01426; 2^-(deltaCq) BiP (HCT116, 250 ng, replicate 2): 0.0387; 2^-(deltaCq) CHOP (HCT116, 250 ng, replicate 2): 4.414; 2^-(deltaCq) DR5 total (HCT116, 250 ng, replicate 2): 0.01599; 2^-(deltaCq) BiP (HCT116, 250 ng, replicate 3): 0.03645; 2^-(deltaCq) CHOP (HCT116, 250 ng, replicate 3): 4.3881; 2^-(deltaCq) DR5 total (HCT116, 250 ng, replicate 3): 0.01387; avg. fold induction relative to empty traffo, BiP (HCT116, 500 ng): 0.5375 fold; avg. fold induction relative to empty traffo, CHOP (HCT116, 500 ng): 1484.73 fold; avg. fold induction relative to empty traffo, DR5 total (HCT116, 500 ng): 1.792 fold; fold induction relative to empty traffo, BiP (HCT116, 500 ng, replicate 1): 0.5213 fold; fold induction relative to empty traffo, CHOP (HCT116, 500 ng, replicate 1): 1691.32 fold; fold induction relative to empty traffo, DR5 total (HCT116, 500 ng, replicate 1): 1.92 fold; fold induction relative to empty traffo, BiP (HCT116, 500 ng, replicate 2): 0.6638 fold; fold induction relative to empty traffo, CHOP (HCT116, 500 ng, replicate 2): 1384.67 fold; fold induction relative to empty traffo, DR5 total (HCT116, 500 ng, replicate 2): 1.724 fold; fold induction relative to empty traffo, BiP (HCT116, 500 ng, replicate 3): 0.4274 fold; fold induction relative to empty traffo, CHOP (HCT116, 500 ng, replicate 3): 1378.19 fold; fold induction relative to empty traffo, DR5 total (HCT116, 500 ng, replicate 3): 1.731 fold; 2^-(deltaCq) BiP (HCT116, 500 ng, replicate 1): 0.04537; 2^-(deltaCq) CHOP (HCT116, 500 ng, replicate 1): 17.8515; 2^-(deltaCq) DR5 total (HCT116, 500 ng, replicate 1): 0.03114; 2^-(deltaCq) BiP (HCT116, 500 ng, replicate 2): 0.05778; 2^-(deltaCq) CHOP (HCT116, 500 ng, replicate 2): 14.6148; 2^-(deltaCq) DR5 total (HCT116, 500 ng, replicate 2): 0.02796; 2^-(deltaCq) BiP (HCT116, 500 ng, replicate 3): 0.0372; 2^-(deltaCq) CHOP (HCT116, 500 ng, replicate 3): 14.5464; 2^-(deltaCq) DR5 total (HCT116, 500 ng, replicate 3): 0.02807; CHOP (qPCR CHOP, Sheet1) [1]: 16.3851; DR5 (qPCR CHOP, Sheet1) [1]: 0.9029; GADD34 (qPCR CHOP, Sheet1) [1]: 0.958
